Assay results as given in the supplement of paper PMC7125110.
± gives the standard error. For some of these results: This sample holds only a part of the variants without activity.

B1: glmS ribozyme (parent)
chain: AUAAAAGCGCCAGAACUACAGAAAUGUAGUUGACGAGGAGGAGGUUUAUCGAAUUUUCGGCGGAUGCCUCCAAA

Tests used:
Settings in all cases: with glucosamine-6-phosphate
glucosamine-6-phosphate [1] = variants of: B1; test: kcat; higher = faster cleavage; RNA array
In short: (§1)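 Tracking of barcoded ribozyme variants used a hybridised Cy3 probe at 37 °C, after in situ transcription by E. coli RNA polymerase on sequenced MiSeq chips. The flowed solution held 40 μM to 10 mM glucosamine-6-phosphate in HEPES/KCl/Mg(OAc)2 buffer, and imaging ran over ~14 h. kobs was taken from exponential decay fits of normalised per-tile medians, and kcat and KM from weighted Michaelis–Menten fits.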

glucosamine-6-phosphate [2] = variants of: B1; test: KM; higher = weaker cofactor use; RNA array
In short: as §1

glucosamine-6-phosphate [3] = variants of: B1; test: self-cleavage kobs at 160 uM GlcN6P; higher = faster cleavage; RNA array
In short: as §1

glucosamine-6-phosphate [4] = variants of: B1; test: self-cleavage kobs at 640 uM GlcN6P; higher = faster cleavage; RNA array
In short: as §1

glucosamine-6-phosphate [5] = variants of: B1; test: self-cleavage kobs at 2500 uM GlcN6P; higher = faster cleavage; RNA array
In short: as §1

glucosamine-6-phosphate [6] = variants of: B1; test: self-cleavage kobs at 10000 uM GlcN6P; higher = faster cleavage; RNA array
In short: as §1

glucosamine-6-phosphate [7] = variants of: B1; test: self-cleavage kobs at 40 uM GlcN6P; higher = faster cleavage; RNA array
In short: as §1

Variant	kcat (glucosamine-6-phosphate [1]) [s⁻¹]	KM (glucosamine-6-phosphate [2]) [µM]	self-cleavage kobs at 160 uM GlcN6P (glucosamine-6-phosphate [3]) [s⁻¹]	self-cleavage kobs at 640 uM GlcN6P (glucosamine-6-phosphate [4]) [s⁻¹]	self-cleavage kobs at 2500 uM GlcN6P (glucosamine-6-phosphate [5]) [s⁻¹]	self-cleavage kobs at 10000 uM GlcN6P (glucosamine-6-phosphate [6]) [s⁻¹]	self-cleavage kobs at 40 uM GlcN6P (glucosamine-6-phosphate [7]) [s⁻¹]
A52U U54C	0.000603 ± 4.5e-05	2570 ± 310	3.57e-05 ± 9.5e-06	0.000115 ± 1.9e-05	0.000318 ± 5e-05	0.000462 ± 8.6e-05	–
U54G G66U	0.00193 ± 0.00025	1570 ± 340	0.000183 ± 2.7e-05	0.000509 ± 4.8e-05	0.000956 ± 0.00014	0.00181 ± 0.00013	5.67e-05 ± 5.9e-06
A39U A48C	0.000221 ± 2.1e-05	836 ± 370	–	–	0.000181 ± 1.8e-05	0.000196 ± 1.6e-05	–
A15G C16A C70U	0.000398 ± 6.7e-05	804 ± 260	6.78e-05 ± 2.4e-05	0.000168 ± 2.9e-05	0.000315 ± 6.5e-05	–	–
A64U	0.00017 ± 6.8e-06	1860 ± 190	1.18e-05 ± 2.4e-06	4.12e-05 ± 1.3e-06	0.000102 ± 1.9e-06	0.000141 ± 2.2e-06	–
G29U U65C	6.8e-05 ± 1.9e-05	–	–	–	6.54e-05 ± 1.3e-05	5.46e-05 ± 1.2e-05	–
U55A G66A	0.0303 ± 0.014	–	0.00137 ± 0.0003	0.00563 ± 0.00082	0.015 ± 0.0035	0.0286 ± 0.0061	0.000654 ± 7.1e-05
U55G U65G	0.00419 ± 0.00048	3440 ± 580	0.00022 ± 6.1e-05	0.000628 ± 0.0001	0.00164 ± 0.00022	0.0033 ± 0.00045	5.26e-05 ± 1.1e-05
G41A C71A	0.000272 ± 3.8e-05	645 ± 210	5.23e-05 ± 1.1e-05	0.000125 ± 1.7e-05	0.000308 ± 5.6e-05	0.000248 ± 2.8e-05	2.7e-05 ± 8.9e-06
C10U G59U	2.6e-05 ± 1.8e-06	2000 ± 700	–	–	–	2.16e-05 ± 1.1e-05	–
A15G U56A	0.00941 ± 0.0033	1700 ± 790	0.000554 ± 9.9e-05	0.00267 ± 0.00031	0.00536 ± 0.0015	0.00825 ± 0.0011	0.000313 ± 3.4e-05
C11A C61U C67G	< 1e-05	–	–	–	–	–	–
C16G U65A	0.000589 ± 6.3e-05	3010 ± 580	–	0.000107 ± 1.4e-05	0.00027 ± 6.5e-05	0.00045 ± 4.9e-05	–
C16G U56C	0.000431 ± 6.4e-05	–	–	–	0.000276 ± 4.5e-05	0.000354 ± 3.8e-05	–
A33G U65A C70G	4e-05 ± 6.6e-06	627 ± 310	–	–	–	–	< 1e-05
G38A U49A C58U	2.37e-05 ± 3.2e-06	862 ± 380	–	–	–	–	–
C16A U46A	7.31e-05 ± 2e-06	547 ± 78	–	–	6.28e-05 ± 2e-05	6.82e-05 ± 1.6e-05	–
A15C C70A	6.11e-05 ± 1.2e-05	–	3.37e-05 ± 1.6e-05	5.56e-05 ± 1.2e-05	9.56e-05 ± 1.5e-05	4.95e-05 ± 8.2e-06	–
C50A A64G	1.03e-05 ± 2.3e-07	106 ± 36	–	–	–	–	–

Variant	kcat (glucosamine-6-phosphate [1]) [s⁻¹]	KM (glucosamine-6-phosphate [2]) [µM]	self-cleavage kobs at 160 uM GlcN6P (glucosamine-6-phosphate [3]) [s⁻¹]	self-cleavage kobs at 640 uM GlcN6P (glucosamine-6-phosphate [4]) [s⁻¹]	self-cleavage kobs at 2500 uM GlcN6P (glucosamine-6-phosphate [5]) [s⁻¹]	self-cleavage kobs at 10000 uM GlcN6P (glucosamine-6-phosphate [6]) [s⁻¹]	self-cleavage kobs at 40 uM GlcN6P (glucosamine-6-phosphate [7]) [s⁻¹]
U49G A52U	1.85e-05 ± 1.5e-06	2320 ± 910	< 1e-05	–	–	–	–
G29U G59U	< 1e-05	–	< 1e-05	–	–	–	–
C50A G62U	< 1e-05	–	–	–	–	< 1e-05	< 1e-05
C34G C68G	2.55e-05 ± 1e-05	–	–	–	–	–	–
U45A G59A	0.00059 ± 0.00018	–	–	2.71e-05 ± 1e-05	6.8e-05 ± 3.3e-05	0.000234 ± 3.9e-05	< 1e-05
G40A G66A	0.00833 ± 0.0037	–	0.000201 ± 8.8e-05	0.00165 ± 0.00041	–	0.00641 ± 0.00098	0.000144 ± 2e-05
U30G C58G A64C C67G C71G	4.36e-05 ± 1.6e-05	–	5.89e-05 ± 2e-05	–	–	–	–
G9C G37C	1.88e-05 ± 8.6e-06	–	–	–	–	< 1e-05	–
A15U C50A	1.29e-05 ± 3.8e-06	–	–	–	–	–	–
U30C G62A	< 1e-05	–	–	< 1e-05	–	–	–
G62U C68A	1.34e-05 ± 8.7e-07	129 ± 56	–	–	–	–	–
A14U G59A	6.06e-05 ± 3.3e-06	9990 ± 1000	< 1e-05	–	–	3.03e-05 ± 1.1e-05	< 1e-05
G13A U56A	0.000767 ± 0.0001	3960 ± 750	2.49e-05 ± 1e-05	0.000106 ± 1.3e-05	0.000312 ± 3.9e-05	0.000519 ± 0.00011	–
G44A	0.00053 ± 6.3e-05	1820 ± 420	3.7e-05 ± 2.4e-06	0.000135 ± 3e-06	0.000389 ± 1e-05	0.000426 ± 8.1e-06	–
U30C U46G	3.27e-05 ± 2.8e-06	5040 ± 1000	–	–	–	–	–
C50G G62C	2.62e-05 ± 7.9e-06	–	–	–	–	–	–
G13U A64C	1.02e-05 ± 3e-06	–	–	–	–	–	–
A15C G29U	0.00341 ± 0.00015	2200 ± 140	–	0.000757 ± 0.00012	0.00169 ± 0.00042	0.00285 ± 0.00042	6.18e-05 ± 8.8e-06
G66U C68G	4.91e-05 ± 1.9e-05	–	3.35e-05 ± 1.3e-05	8.19e-05 ± 1.4e-05	6.89e-05 ± 1.1e-05	–	–
